Laboratory results taken from the supplement of paper PMC5998384.

Columns and labels:
HeLa Kyoto [1] = test: solubility in G1/S (NP-40 vs SDS abundance) (log2 ratio); higher = more soluble; details: cell cycle stage: G1/S
HeLa Kyoto [2] = test: thermal stability score vs G1/S (z-score of summed log2 fold changes over temperatures); higher = more thermally stable than in G1/S
HeLa Kyoto [3] = test: melting temperature (median over replicates), in situ; higher = more thermally stable
HeLa Kyoto [4] = test: solubility change mitosis vs G1/S (difference of NP-40 vs SDS log2 ratios) (log2 ratio difference); higher = more soluble in mitosis
[5] = cell cycle stage: early G1 (4.5 h after nocodazole release)
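For melting temperature (median over replicates), in situ in this document: HeLa Kyoto cells synchronized by double thymidine or nocodazole block, proteins quantified by TMT10plex mass spectrometry, three independent biological replicates.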
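For solubility change mitosis vs G1/S (difference of NP-40 vs SDS log2 ratios) in this document: synchronized HeLa Kyoto cells (double thymidine block for G1/S, nocodazole release for mitosis), protein amounts in NP-40 versus SDS lysates quantified by mass spectrometry, three biological replicates.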
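For solubility in G1/S (NP-40 vs SDS abundance) in this document: HeLa Kyoto cells arrested at G1/S by double thymidine block, proteins quantified by TMT10plex mass spectrometry in mild NP-40 versus SDS extracts, three biological replicates.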
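For thermal stability score vs G1/S (z-score of summed log2 fold changes over temperatures) in this document: synchronized HeLa Kyoto cells, proteins quantified by TMT10plex mass spectrometry, three biological replicates, mitosis taken 0.5 h after nocodazole release, G1/S directly after double thymidine block.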

CASKIN2, sequence (chain, as listed by the source): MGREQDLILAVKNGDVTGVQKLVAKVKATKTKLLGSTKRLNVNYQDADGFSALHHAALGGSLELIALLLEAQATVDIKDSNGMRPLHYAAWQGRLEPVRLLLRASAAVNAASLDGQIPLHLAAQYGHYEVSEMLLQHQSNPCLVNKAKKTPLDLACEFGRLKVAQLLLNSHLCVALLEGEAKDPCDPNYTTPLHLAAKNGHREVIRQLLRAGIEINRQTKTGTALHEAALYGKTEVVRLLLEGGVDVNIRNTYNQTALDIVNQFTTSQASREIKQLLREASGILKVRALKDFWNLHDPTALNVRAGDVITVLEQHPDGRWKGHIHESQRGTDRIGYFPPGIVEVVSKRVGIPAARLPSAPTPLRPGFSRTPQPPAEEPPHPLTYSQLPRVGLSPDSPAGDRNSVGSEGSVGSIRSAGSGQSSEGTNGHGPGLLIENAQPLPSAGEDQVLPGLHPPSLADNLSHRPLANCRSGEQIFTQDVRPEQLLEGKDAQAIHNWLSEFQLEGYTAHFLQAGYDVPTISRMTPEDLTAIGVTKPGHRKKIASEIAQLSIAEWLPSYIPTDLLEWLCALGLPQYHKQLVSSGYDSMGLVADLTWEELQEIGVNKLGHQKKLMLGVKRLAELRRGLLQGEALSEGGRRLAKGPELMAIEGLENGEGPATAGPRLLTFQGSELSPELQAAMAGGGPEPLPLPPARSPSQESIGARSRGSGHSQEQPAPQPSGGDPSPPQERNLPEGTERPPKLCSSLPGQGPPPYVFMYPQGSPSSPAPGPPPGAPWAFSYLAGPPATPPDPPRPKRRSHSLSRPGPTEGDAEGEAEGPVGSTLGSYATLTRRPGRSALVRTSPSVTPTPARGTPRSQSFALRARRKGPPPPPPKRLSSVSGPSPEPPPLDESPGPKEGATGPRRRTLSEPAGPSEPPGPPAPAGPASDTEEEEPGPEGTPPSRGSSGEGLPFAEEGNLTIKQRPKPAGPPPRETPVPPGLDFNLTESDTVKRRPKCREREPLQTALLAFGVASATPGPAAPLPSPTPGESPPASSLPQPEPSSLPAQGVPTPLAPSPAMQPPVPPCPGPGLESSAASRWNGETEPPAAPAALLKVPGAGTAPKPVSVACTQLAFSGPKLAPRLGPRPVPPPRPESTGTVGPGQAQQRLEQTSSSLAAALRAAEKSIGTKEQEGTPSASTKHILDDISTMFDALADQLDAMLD

Substance	solubility in G1/S (log2) (HeLa Kyoto [1])	thermal stability score (HeLa Kyoto [2]; [5])	thermal stability score (HeLa Kyoto [2]; cell cycle stage: mitosis)	melting temperature (HeLa Kyoto [3]; cell cycle stage: G1/S) [°C]	melting temperature (HeLa Kyoto [3]; cell cycle stage: mitosis) [°C]	solubility change mitosis (log2) (HeLa Kyoto [4])
MGEIEQRPTPGSRLGAPENSGISTLERGQKPPPTPSGKLVSIKIQMLDDTQEAFEVPQRAPGKVLLDAVCNHLNLVEGDYFGLEFPDHKKITVWLDLLKPIVKQIRRPKHVVVKFVVKFFPPDHTQLQEELTRYLFALQVKQDLAQGRLTCNDTSAALLISHIVQSEIGDFDEALDREHLAKNKYIPQQDALEDKIVEFHHNHIGQTPAESDFQLLEIARRLEMYGIRLHPAKDREGTKINLAVANTGILVFQGFTKINAFNWAKVRKLSFKRKRFLIKLRPDANSAYQDTLEFLMASRDFCKSFWKICVEHHAFFRLFEEPKPKPKPVLFSRGSSFRFSGRTQKQVLDYVKEGGHKKVQFERKHSKIHSIRSLASQPTELNSEVLEQSQQSTSLTFGEGAESPGGQSCRRGKEPKVSAGEPGSHPSPAPRRSPAGNKQADGAASAPTEEEEEVVKDRTQQSKPQPPQPSTGSLTGSPHLSELSVNSQGGVAPANVTLSPNLSPDTKQASPLISPLLNDQACPRTDDEDEGRRKRFPTDKAYFIAKEVSTTERTYLKDLEVITSWFQSTVSKEDAMPEALKSLIFPNFEPLHKFHTNFLKEIEQRLALWEGRSNAQIRDYQRIGDVMLKNIQGMKHLAAHLWKHSEALEALENGIKSSRRLENFCRDFELQKVCYLPLNTFLLRPLHRLMHYKQVLERLCKHHPPSHADFRDCRAALAEITEMVAQLHGTMIKMENFQKLHELKKDLIGIDNLVVPGREFIRLGSLSKLSGKGLQQRMFFLFNDVLLYTSRGLTASNQFKVHGQLPLYGMTIEESEDEWGVPHCLTLRGQRQSIIVAASSRSEMEKWVEDIQMAIDLAEKSSSPAPEFLASSPPDNKSPDEATAADQESEDDLSASRTSLERQAPHRGNTMVHVCWHRNTSVSMVDFSIAVENQLSGNLLRKFKNSNGWQKLWVVFTNFCLFFYKSHQDNHPLASLPLLGYSLTIPSESENIQKDYVFKLHFKSHVYYFRAESEYTFERWMEVIRSATSSASRPHVLSHKESLVY [FARP1]	-0.198	1.1	2.25	49.2	49.1	-0.0824
CASKIN2	0.412	0.8	1.68	49.4	48.8	-0.0911
MAKVSELYDVTWEEMRDKMRKWREENSRNSEQIVEVGEELINEYASKLGDDIWIIYEQVMIAALDYGRDDLALFCLQELRRQFPGSHRVKRLTGMRFEAMERYDDAIQLYDRILQEDPTNTAARKRKIAIRKAQGKNVEAIRELNEYLEQFVGDQEAWHELAELYINEHDYAKAAFCLEELMMTNPHNHLYCQQYAEVKYTQGGLENLELSRKYFAQALKLNNRNMRALFGLYMSASHIASNPKASAKTKKDNMKYASWAASQINRAYQFAGRSKKETKYSLKAVEDMLETLQITQS [EMC2]	0.188	-1.21	-1.88	53.8	53.9	0.0699
MSFSRALLWARLPAGRQAGHRAAICSALRPHFGPFPGVLGQVSVLATASSSASGGSKIPNTSLFVPLTVKPQGPSADGDVGAELTRPLDKNEVKKVLDKFYKRKEIQKLGADYGLDARLFHQAFISFRNYIMQSHSLDVDIHIVLNDICFGAAHADDLFPFFLRHAKQIFPVLDCKDDLRKISDLRIPPNWYPDARAMQRKIIFHSGPTNSGKTYHAIQKYFSAKSGVYCGPLKLLAHEIFEKSNAAGVPCDLVTGEERVTVQPNGKQASHVSCTVEMCSVTTPYEVAVIDEIQMIRDPARGWAWTRALLGLCAEEVHLCGEPAAIDLVMELMYTTGEEVEVRDYKRLTPISVLDHALESLDNLRPGDCIVCFSKNDIYSVSRQIEIRGLESAVIYGSLPPGTKLAQAKKFNDPNDPCKILVATDAIGMGLNLSIRRIIFYSLIKPSINEKGERELEPITTSQALQIAGRAGRFSSRFKEGEVTTMNHEDLSLLKEILKRPVDPIRAAGLHPTAEQIEMFAYHLPDATLSNLIDIFVDFSQVDGQYFVCNMDDFKFSAELIQHIPLSLRVRYVFCTAPINKKQPFVCSSLLQFARQYSRNEPLTFAWLRRYIKWPLLPPKNIKDLMDLEAVHDVLDLYLWLSYRFMDMFPDASLIRDLQKELDGIIQDGVHNITKLIKMSETHKLLNLEGFPSGSQSRLSGTLKSQARRTRGTKALGSKATEPPSPDAGELSLASRLVQQGLLTPDMLKQLEKEWMTQQTEHNKEKTESGTHPKGTRRKKKEPDSD [SUPV3L1]	-0.0284	0.374	0.138	51.4	51.5	-0.0848
MSGELPPNINIKEPRWDQSTFIGRANHFFTVTDPRNILLTNEQLESARKIVHDYRQGIVPPGLTENELWRAKYIYDSAFHPDTGEKMILIGRMSAQVPMNMTITGCMMTFYRTTPAVLFWQWINQSFNAVVNYTNRSGDAPLTVNELGTAYVSATTGAVATALGLNALTKHVSPLIGRFVPFAAVAAANCINIPLMRQRELKVGIPVTDENGNRLGESANAAKQAITQVVVSRILMAAPGMAIPPFIMNTLEKKAFLKRFPWMSAPIQVGLVGFCLVFATPLCCALFPQKSSMSVTSLEAELQAKIQESHPELRRVYFNKGL [SFXN1]	0.371	-0.303	-0.959	54.4	54.8	-0.0506
MGGTTSTRRVTFEADENENITVVKGIRLSENVIDRMKESSPSGSKSQRYSGAYGASVSDEELKRRVAEELALEQAKKESEDQKRLKQAKELDRERAAANEQLTRAILRERICSEEERAKAKHLARQLEEKDRVLKKQDAFYKEQLARLEERSSEFYRVTTEQYQKAAEEVEAKFKRYESHPVCADLQAKILQCYRENTHQTLKCSALATQYMHCVNHAKQSMLEKGG [CHCHD3]	0.229	-2.54	-6	54.6	54.2	0.291
MRLSSLLALLRPALPLILGLSLGCSLSLLRVSWIQGEGEDPCVEAVGERGGPQNPDSRARLDQSDEDFKPRIVPYYRDPNKPYKKVLRTRYIQTELGSRERLLVAVLTSRATLSTLAVAVNRTVAHHFPRLLYFTGQRGARAPAGMQVVSHGDERPAWLMSETLRHLHTHFGADYDWFFIMQDDTYVQAPRLAALAGHLSINQDLYLGRAEEFIGAGEQARYCHGGFGYLLSRSLLLRLRPHLDGCRGDILSARPDEWLGRCLIDSLGVGCVSQHQGQQYRSFELAKNRDPEKEGSSAFLSAFAVHPVSEGTLMYRLHKRFSALELERAYSEIEQLQAQIRNLTVLTPEGEAGLSWPVGLPAPFTPHSRFEVLGWDYFTEQHTFSCADGAPKCPLQGASRADVGDALETALEQLNRRYQPRLRFQKQRLLNGYRRFDPARGMEYTLDLLLECVTQRGHRRALARRVSLLRPLSRVEILPMPYVTEATRVQLVLPLLVAEAAAAPAFLEAFAANVLEPREHALLTLLLVYGPREGGRGAPDPFLGVKAAAAELERRYPGTRLAWLAVRAEAPSQVRLMDVVSKKHPVDTLFFLTTVWTRPGPEVLNRCRMNAISGWQAFFPVHFQEFNPALSPQRSPPGPPGAGPDPPSPPGADPSRGAPIGGRFDRQASAEGCFYNADYLAARARLAGELAGQEEEEALEGLEVMDVFLRFSGLHLFRAVEPGLVQKFSLRDCSPRLSEELYHRCRLSNLEGLGGRAQLAMALFEQEQANST [CHPF2]	-0.00882	-0.504	-0.497	53.4	53	-0.00799
MLGRSLREVSAALKQGQITPTELCQKCLSLIKKTKFLNAYITVSEEVALKQAEESEKRYKNGQSLGDLDGIPIAVKDNFSTSGIETTCASNMLKGYIPPYNATVVQKLLDQGALLMGKTNLDEFAMGSGSTDGVFGPVKNPWSYSKQYREKRKQNPHSENEDSDWLITGGSSGGSAAAVSAFTCYAALGSDTGGSTRNPAAHCGLVGFKPSYGLVSRHGLIPLVNSMDVPGILTRCVDDAAIVLGALAGPDPRDSTTVHEPINKPFMLPSLADVSKLCIGIPKEYLVPELSSEVQSLWSKAADLFESEGAKVIEVSLPHTSYSIVCYHVLCTSEVASNMARFDGLQYGHRCDIDVSTEAMYAATRREGFNDVVRGRILSGNFFLLKENYENYFVKAQKVRRLIANDFVNAFNSGVDVLLTPTTLSEAVPYLEFIKEDNRTRSAQDDIFTQAVNMAGLPAVSIPVALSNQGLPIGLQFIGRAFCDQQLLTVAKWFEKQVQFPVIQLQELMDDCSAVLENEKLASVSLKQ [QRSL1]	0.0331	-0.191	-0.152	50	50.4	-0.131
PLPP2	-0.0273	0.347	-1.64	55	54.3	-0.279
MAAPEGSGLGEDARLDQETAQWLRWDKNSLTLEAVKRLIAEGNKEELRKCFGARMEFGTAGLRAAMGPGISRMNDLTIIQTTQGFCRYLEKQFSDLKQKGIVISFDARAHPSSGGSSRRFARLAATTFISQGIPVYLFSDITPTPFVPFTVSHLKLCAGIMITASHNPKQDNGYKVYWDNGAQIISPHDKGISQAIEENLEPWPQAWDDSLIDSSPLLHNPSASINNDYFEDLKKYCFHRSVNRETKVKFVHTSVHGVGHSFVQSAFKAFDLVPPEAVPEQKDPDPEFPTVKYPNPEEGKGVLTLSFALADKTKARIVLANDPDADRLAVAEKQDSGEWRVFSGNELGALLGWWLFTSWKEKNQDRSALKDTYMLSSTVSSKILRAIALKEGFHFEETLTGFKWMGNRAKQLIDQGKTVLFAFEEAIGYMCCPFVLDKDGVSAAVISAELASFLATKNLSLSQQLKAIYVEYGYHITKASYFICHDQETIKKLFENLRNYDGKNNYPKACGKFEISAIRDLTTGYDDSQPDKKAVLPTSKSSQMITFTFANGGVATMRTSGTEPKIKYYAELCAPPGNSDPEQLKKELNELVSAIEEHFFQPQKYNLQPKAD [PGM2]	0.169	-0.0187	-1.07	59.1	58.5	-0.112
MSWFVDLAGKAEDLLNRVDQGAATALSRKDNASNIYSKNTDYTELHQQNTDLIYQTGPKSTYISSAADNIRNQKATILAGTANVKVGSRTPVEASHPVENASVPRPSSHFVRRKKSEPDDELLFDFLNSSQKEPTGRVEIRKEKGKTPVFQSSQTSSVSSVNPSVTTIKTIEENSFGSQTHEAASNSDSSHEGQEESSKENVSSNAACPDHTPTPNDDGKSHELSNLRLENQLLRNEVQSLNQEMASLLQRSKETQEELNKARARVEKWNADHSKSDRMTRGLRAQVDDLTEAVAAKDSQLAVLKVRLQEADQLLSTRTEALEALQSEKSRIMQDQSEGNSLQNQALQTFQERLHEADATLKREQESYKQMQSEFAARLNKVEMERQNLAEAITLAERKYSDEKKRVDELQQQVKLYKLNLESSKQELIDYKQKATRILQSKEKLINSLKEGSGFEGLDSSTASSMELEELRHEKEMQREEIQKLMGQIHQLRSELQDMEAQQVNEAESAREQLQDLHDQIAGQKASKQELETELERLKQEFHYIEEDLYRTKNTLQSRIKDRDEEIQKLRNQLTNKTLSNSSQSELENRLHQLTETLIQKQTMLESLSTEKNSLVFQLERLEQQMNSASGSSSNGSSINMSGIDNGEGTRLRNVPVLFNDTETNLAGMYGKVRKAASSIDQFSIRLGIFLRRYPIARVFVIIYMALLHLWVMIVLLTYTPEMHHDQPYGK [GOLGA5]	0.284	1.32	2.34	52.7	53	-0.148
MSGPRPVVLSGPSGAGKSTLLKRLLQEHSGIFGFSVSHTTRNPRPGEENGKDYYFVTREVMQRDIAAGDFIEHAEFSGNLYGTSKVAVQAVQAMNRICVLDVDLQGVRNIKATDLRPIYISVQPPSLHVLEQRLRQRNTETEESLVKRLAAAQADMESSKEPGLFDVVIINDSLDQAYAELKEALSEEIKKAQRTGA [GUK1]	0.604	-0.1	-0.804	48.9	50.2	0.047
